Test results reported in patent publication US20250368734A1 (ANTENGENE BIOLOGICS, published 2025).
Where two headings read alike, the source gives them in different places.

T1: mouse GPRC5D (mouse, UniProt Q9JIL6 1-344)
T1 construct: whole, on cells; HEK293T-mGPRC5D cells; also called mGPRC5D; murine GPRC5D
T1 sequence (looked up): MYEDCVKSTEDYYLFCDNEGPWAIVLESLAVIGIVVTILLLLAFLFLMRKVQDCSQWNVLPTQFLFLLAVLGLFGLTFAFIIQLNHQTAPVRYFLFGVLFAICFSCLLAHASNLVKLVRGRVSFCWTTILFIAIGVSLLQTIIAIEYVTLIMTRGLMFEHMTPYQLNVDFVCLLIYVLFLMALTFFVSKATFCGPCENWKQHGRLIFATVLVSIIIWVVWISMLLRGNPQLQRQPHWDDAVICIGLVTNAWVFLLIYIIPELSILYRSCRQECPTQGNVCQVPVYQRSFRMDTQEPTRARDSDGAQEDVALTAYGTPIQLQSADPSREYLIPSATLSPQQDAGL


Key:
human GPRC5D [1] = target: T2, human GPRC5D (human, UniProt Q9NZD1 1-345); experiment: FACS, HEK293T-hGPRC5D cells; further: test concentration or dose not given here
T2 construct: whole, on cells; also called hGPRC5D; G-protein coupled receptor family C group 5 member D
Outline: (§1)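 Subclone antibodies incubated with parental or GPRC5D-overexpressing HEK293T cells (human, cynomolgus, mouse) and OPM2 cells; bound antibody detected with fluorescent dye-conjugated secondary antibody. Median fluorescence intensity read by FACS.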

cynomolgus monkey GPRC5D [2] = target: T3, cynomolgus monkey GPRC5D (cynomolgus monkey); experiment: FACS, HEK293T-cynoGPRC5D cells
T3 construct: whole, on cells; HEK293T-cynoGPRC5D cells; also called cynoGPRC5D
Text: (§2) The subcloning plates were screened by Mirrorball assay and the subclones with good binding ability were expanded to 24-wells for confirmation tests. The specificity and cross-reactivity of these subclones were confirmed with FACS analysis. Briefly, parental HEK293T, HEK293T cells stably over-expressing human GPRC5D protein (i.e., HEK293T-hGPRC5D), HEK293T cells stably over-expressing cynomolgus monkey GPRC5D protein (i.e., HEK293T-cynoGPRC5D), HEK293T cells stably over-expressing mouse GPRC5D protein (i.e., HEK293T-mGPRC5D), and OPM2 cells were incubated with antibodies produced by each subclone, respectively. Fluorescent dye-conjugated secondary antibody was used to detect the binding of the primary antibody with the cells. Median fluorescence intensity (MFI) was measured by FACS analysis,
(§3) As a result, 21 antibodies were discovered with unique sequences showing positive binding with HEK293T-hGPRC5D and OPM2 cells. Among which, some clones could also bind with HEK293T-cynoGPRC5D and/or HEK293T-mGPRC5D. […] ATG596 was a positive human IgG1 control antibody which comprises a VH region having an amino acid sequence as set forth in SEQ ID NO: 199, and a VL region having an amino acid sequence as set forth in SEQ ID NO: 200.

human GPRC5D [3] = target: T2, human GPRC5D; experiment: FACS, OPM-2 cells; further: test concentration or dose not given here
Outline: as §1

mouse GPRC5D [4] = target: T1, mouse GPRC5D; experiment: FACS, HEK293T-mGPRC5D cells
Text: as §2, §3

cynomolgus monkey GPRC5D [5] = target: T3, cynomolgus monkey GPRC5D; experiment: FACS, HEK293T-cynoGPRC5D cells; remark: listed apart in the source
mouse GPRC5D [6] = target: T1, mouse GPRC5D; experiment: FACS, HEK293T-mGPRC5D cells; remark: listed apart in the source
mouse GPRC5D [7] = target: T1, mouse GPRC5D; experiment: FACS, HEK293T-mGPRC5D cells; remark: listed apart in the source
Text: as §2, §3

cynomolgus monkey GPRC5D [8] = target: T3, cynomolgus monkey GPRC5D; experiment: FACS, HEK293T-cynoGPRC5D cells; remark: listed apart in the source
Outline: as §1

T2 sequence (Q9NZD1 whole entry): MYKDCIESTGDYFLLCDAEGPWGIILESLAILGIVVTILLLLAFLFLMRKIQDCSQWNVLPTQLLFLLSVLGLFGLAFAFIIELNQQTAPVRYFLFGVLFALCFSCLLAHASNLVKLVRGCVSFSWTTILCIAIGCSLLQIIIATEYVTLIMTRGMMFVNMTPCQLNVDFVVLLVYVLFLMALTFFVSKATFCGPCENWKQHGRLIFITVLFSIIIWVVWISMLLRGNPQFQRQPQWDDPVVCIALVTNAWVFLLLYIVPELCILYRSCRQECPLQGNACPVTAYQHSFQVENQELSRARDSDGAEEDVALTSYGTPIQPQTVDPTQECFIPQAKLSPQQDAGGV

% Positive (human GPRC5D [1])	MFI (human GPRC5D [1])	% Positive (cynomolgus monkey GPRC5D [2])	MFI (cynomolgus monkey GPRC5D [2])	% Positive (human GPRC5D [3])	MFI (human GPRC5D [3])	% Positive (mouse GPRC5D [4])	MFI (mouse GPRC5D [4])	EC50 (cynomolgus monkey GPRC5D [5])	Top (cynomolgus monkey GPRC5D [5])	EC50 (mouse GPRC5D [6])	Top (mouse GPRC5D [6])	% Positive (mouse GPRC5D [7])	MFI (mouse GPRC5D [7])	% Positive (cynomolgus monkey GPRC5D [8])	MFI (cynomolgus monkey GPRC5D [8])	Binder
99.5%	32800	99.7%	7760	99.4%	1740	14.6%	150	–	–	–	–	–	–	–	–	15D6G2 (antibody, V domains shown, Mouse monoclonal antibody from hybridoma subclone) VH: EVQLVESGGDLVKPGGYLRLSCAASGFTFSSHGMSWVRQTPDKRLEWVATISSGGRNTYYPDSVKGRFTISRDNAKNILYLQMSSLKSEDTAMFYCTRHSGDAMDYWGQGTSVTVSS VL: DILLTQSPAILSVSPGERVSFSCRASQSIGTNIHWYQQRTNGSPRLLIKYASESISGIPSRFSGSGSGTDFTLSINSVESEDIADYYCQQSKSWPTFGGGTKLEIK
–	–	98.5%	7400	–	–	98.2%	14600	26.6 nM	22500	25.5 nM	45600	97.3%	12400	98.6%	6580	ATG596 (antibody, V domains shown, Human IgG1; also called benchmark antibody ATG596; positive human IgG1 control antibody) VH: QVQLVQSGAEVKKPGASVKVSCKASGYSFTGYTMNWVRQAPGQGLEWMGLINPYNSDTNYAQKLQGRVTMTTDTSTSTAYMELRSLRSDDTAVYYCARVALRVALDYWGQGTLVTVSS VL: DIQMTQSPSSLSASVGDRVTITCKASQNVATHVGWYQQKPGKAPKRLIYSASYRYSGVPSRFSGSGSGTEFTLTISNLQPEDFATYYCQQYNRYPYTFGQGTKLEIK
99.9%	38900	99.2%	31300	99.5%	2020	82.7%	592	–	–	–	–	–	–	–	–	20C4E1 (antibody, V domains shown, Mouse monoclonal antibody from hybridoma subclone) VH: EVRLVESGGALVRPGGSLKLSCAASGFTFSDYGMHWVRQAPEKGLEWIAFISSVSFTIYYADTVKGRFTISRDNAKNTLFLQMTSLRSEDTALYYCTRLGPHWYFDVWGTGTTVTVSS VL: DVVLTQTPLSLPVSLGDQASISCRSSQSLVYSNGNTYLHWFLQKPGQSPQLLIYKVSNRFSGVPDRFSGSGSGTDFTLKISRVEAEDLGVYFCSQSTPVPTFGGGTKLEIK
98.7%	32100	96.2%	24700	98.4%	1070	99%	7080	–	–	–	–	–	–	–	–	12G12C2 (antibody, V domains shown, Mouse monoclonal antibody from hybridoma subclone) VH: QIQLVQSGPELKMPGETVKISCKASGYTFTTYGLSWVKQAPGKGLKWMGWINTFSGVPIYADDFKGRFAFSLETSASTAYLQINNLKNEDTATYFCARWGIRQRGDYWGQGATLTVSS VL: QIVLTQSPAIMSASPGEKVTMTCSASSSVSYLHWYQQKSGTSPKRWIYDTSKLASGVPVRFSGSGSETSYSLTISSMEAEDAATYYCQQWTSNPPTFGGGTKLEIK
